Source: patent US20210355192A1 (YALE UNIVERSITY, published 2021)

Target: the molecule itself
Assay: gel filtration with multi-angle light scattering (self-association)
Method: Multi-angle Light Scattering. PFcR and subdomains (1 mg/ml) in 20 mM Tris-HCl buffer (pH 7.4) containing 0.2M NaCl was applied at 0.5 ml per minute to Superdex200 16/600 (GE, Boston, Mass.) gel filtration column in-line with DAWN HELEOS II light scattering instrument (Wyatt Technology, Santa Barbra, Calif.; laser wavelength 658 nm). Data collection and analysis used Astra software (Wyatt technology).

B1: His-tagged consensus filaggrin subdomain SD150 (other)
chain: SEDSDTQSVSAHGQAGPHQQSHQESARGRSGERSGRSGSFLYQVSTHEQSESAHGRTGPSTGGRQGSHHEQARDSSRHSASQEGQDTIRGHPGSSRGGRQGSHHEQSVDRSGHSGSHHSHTTSQGRSDASRGQSGSRSASRQTRNEEQSG
notes: His-tag kept (thrombin degraded the protein); also called long linker subdomain; not shown: 19-residue N-terminal tag (hexa-his, thrombin site, spacer residues)
Question: Does B1 bind?
Answer: Result: no binding (tested: 1 mg/ml)

B2: His-tagged consensus filaggrin subdomain SD67 (other)
chain: SEDSERWSGSASRNHHGSAQEQSRDGSRHPRSHHEDRAGHGHSADSSRQSGTRHAETSSGGQAASSH
notes: His-tag kept (thrombin degraded the protein); also called short linker subdomain; not shown: 19-residue N-terminal tag (hexa-his, thrombin site, spacer residues)
Question: Does B2 bind?
Answer: Result: no binding (tested: 1 mg/ml)
